± gives the half width of the 95% confidence interval.
How the values were obtained:
[1] = folding stability dG unfold from chymotrypsin proteolysis; higher = more stable
Method in brief: (§1)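 Bayesian fitting of sequencing counts gave K50 for each design. Unfolding free energy followed by setting this against a sequence-predicted unfolded-state K50 and a shared folded-state K50, either per protease or with trypsin and chymotrypsin combined. The designs, under 80 residues and lacking cysteine, were digested in a PA-tagged cDNA display format at 11 threefold-diluted protease concentrations and without protease, and only those with AlphaFold2 dimer inter-PAE above 15 were kept.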

[2] = folding stability dG unfold from trypsin proteolysis; higher = more stable
Method in brief: as §1

[3] = folding stability dG unfold (combined trypsin and chymotrypsin); higher = more stable
Method in brief: as §1

Sequence	folding stability dG unfold [1]	folding stability dG unfold [2]	folding stability dG unfold [3]
SAGGMKIEIELEDGYLRVKIYDKDGKLIEEIEIKIEKVEPPPEVEVELSPEELAKKLGVEIEIKEKESAGGS [r16_778_TrROS_Hall]	2.38 ± 0.2 kcal/mol	1.62 ± 0.18 kcal/mol	2.32 ± 0.44 kcal/mol
SAGGMKIEKIFSSEEEAKAAAEKIKNETPEGKELKIEISKIPLKENLPPESPEILDEERYIVKVELPSAGGS [r16_795_JUSTAS]	0.116 ± 0.42 kcal/mol	0.816 ± 0.078 kcal/mol	0.467 ± 0.24 kcal/mol
SAGGMKIIEIEDRGPGKFAGPETVLEALRKALPGIPIEVLDYDPEKHVIRIRVPEEAVPRIVEAFKSSAGGS [r8_235_TrMRF]	3.96 ± 0.056 kcal/mol	3.68 ± 0.098 kcal/mol	3.88 ± 0.057 kcal/mol
SAGGMKIIPITPEMIEEAKKLGLTPEDEAFEFEVTLPNGEVLRGTLIIPPDNPDIPVEAEPYLNLDKSAGGS [r16_497_TrMRF]	0.904 ± 0.092 kcal/mol	0.555 ± 0.1 kcal/mol	0.703 ± 0.18 kcal/mol
SAGGMKIKLKDGSEITIGSEPGRLVIVLRPPGPRSRKVIPFPVPSKEHGFVAAVNELLSLEDIEEIEPSAGG [r13_579_TrMRF]	1.34 ± 0.077 kcal/mol	0.379 ± 0.11 kcal/mol	1.15 ± 0.2 kcal/mol
SAGGMKIKLKNGKVIEIKKKPGYIEIKIIDKKTKKVYTYTFKSKDGKISLEDLAKKLAELPNIKEIIPSAGG [r13_579_TrROS_Hall]	4.48 ± 0.15 kcal/mol	3.3 ± 0.29 kcal/mol	4.27 ± 0.32 kcal/mol
SAGGMKIKTKSGKELTLKKIKLKYKNKEYEIENLKIKAIKYDPKKKIVHIEVTHPNGKKYTFDLKIKSAGGS [r8_215_TrMRF]	3.49 ± 0.086 kcal/mol	1.69 ± 0.052 kcal/mol	2.8 ± 0.21 kcal/mol
SAGGMKIRIPEGQEVKLKKVRFWHNGKPWKIPNMEIKVDRIDPNDNRVQIEIKHPNGRPHTFAFDIKSAGGS [r8_215_TrROS]	0.456 ± 0.13 kcal/mol	0.459 ± 0.11 kcal/mol	0.512 ± 0.086 kcal/mol
SAGGMKITITYDKETKTITVKITYPDGTTEELTIEVPPEKKTPEEIAEELKKLIEERFGKKVEIEIVSAGGS [r8_166_TrROS_Hall]	2.45 ± 0.18 kcal/mol	3.82 ± 0.26 kcal/mol	2.98 ± 0.15 kcal/mol
SAGGMKITKEGNELTLTYPNLTVTYDPNTGKMTITNPATGKTVTIPVPATSLEEKLAAVEEVKAALPSAGGS [r8_447_JUSTAS]	0.707 ± 0.042 kcal/mol	1.06 ± 0.025 kcal/mol	0.918 ± 0.041 kcal/mol
SAGGMKITLPPGAEITEVFELPDGQLLLRVRHKDTGKTEVVPASDLEIEIEPGEEVEVEIFRVPKEDLSAGG [r13_173_TrROS_Hall]	1.45 ± 0.13 kcal/mol	1.38 ± 0.069 kcal/mol	1.39 ± 0.14 kcal/mol
SAGGMKIVEITEEVPPGAVVRITFEDGSKREIKIPNVAELKGKKITLELPGLKVVKIEVVPAKEGEEVSAGG [r13_587_TrROS_Hall]	1.69 ± 0.29 kcal/mol	2.3 ± 0.15 kcal/mol	2.05 ± 0.48 kcal/mol
SAGGMKKITITIPLEELKNLTPEERKEKLKELAEEIAKKLGLPPGAKIKKIEVEEVDGKLYVKIEIESAGGS [r16_368_TrROS_Hall]	3.93 ± 0.066 kcal/mol	3.82 ± 0.18 kcal/mol	3.92 ± 0.1 kcal/mol
SAGGMKKTVTITITEELPTETGEYKTKTVTTTLTVTPPPPEVTEEEKLREKALKENPNVSPDDPKALLSAGG [r13_136_JUSTAS]	0.535 ± 0.11 kcal/mol	-0.948 ± 0.6 kcal/mol	0.153 ± 0.14 kcal/mol
SAGGMKLEFEAEITVPLPVPTPEGGLEFVPITEPIRIEAEHPEELEIALKEAELETIERALKELGIESAGGS [r16_339_TrMRF]	-0.723 ± 0.16 kcal/mol	-0.594 ± 0.19 kcal/mol	-0.845 ± 0.59 kcal/mol
SAGGMKLVVTKVGEDDNTEYYLITDPGSAEAIREAIKKLVPKDLPYKVTVLSYDPATGTYTVLVEVKRSAGG [r13_491_JUSTAS]	3.67 ± 0.039 kcal/mol	2.91 ± 0.13 kcal/mol	3.44 ± 0.11 kcal/mol
SAGGMKPGEKVLVKITLKKEVFKNENGEEVKVEEKEILIELEVDSLEEALEALKKLLPPGAEIEVLPSAGGS [r16_282_TrROS_Hall]	3.1 ± 0.047 kcal/mol	3.52 ± 0.13 kcal/mol	3.24 ± 0.13 kcal/mol
SAGGMKPGESSTVPPVVERTTSPDSLGNPRYTVTRVTEITVTYFPDSINVTVTTETTVVSTATPGLLSAGGS [r8_70_JUSTAS]	1.15 ± 0.031 kcal/mol	2.2 ± 0.059 kcal/mol	1.78 ± 0.07 kcal/mol
SAGGMKPGQPWHEIEVQREIDLPPGQISAEEIADLIAELFPGFRVEDFRIEFTGKKWRIDVTIYIPYSAGGS [r8_202_TrROS]	3.49 ± 0.039 kcal/mol	2.56 ± 0.073 kcal/mol	3.14 ± 0.11 kcal/mol
SAGGMKTAVLTLEVPGLPKRLVLIAGESEEEYKKLAAEAEKPGYEFLGYTTLEELVERTGLPASLLLSAGGS [r16_438_JUSTAS]	1.07 ± 0.28 kcal/mol	0.916 ± 0.085 kcal/mol	0.969 ± 0.19 kcal/mol
SAGGMKTFEKPMTAEEVMALLEEIAKKGNVNVTIETEGKTYEVDPSKAKPIPPENVTAKITITELPKSAGGS [r16_628_JUSTAS]	-0.182 ± 0.17 kcal/mol	-0.051 ± 0.15 kcal/mol	0.186 ± 0.28 kcal/mol

Sequence	folding stability dG unfold [1]	folding stability dG unfold [2]	folding stability dG unfold [3]
SAGGMKTLRLVVTVKVPKETGKPTVAEKLAEELAKLPGVEVVKVEVKRLENGTVVVTIEIKVPKELKPSAGG [r13_428_TrROS_Hall]	3.36 ± 0.061 kcal/mol	3.13 ± 0.23 kcal/mol	3.18 ± 0.13 kcal/mol
SAGGMKTVEIEIPVPPGMSIEELVKKLLEELKKKKDIKEVEIEITLKDGSKIKIRVNKNGKIVKVEKLSAGG [r13_690_TrROS_Hall]	2.46 ± 0.11 kcal/mol	1.73 ± 0.056 kcal/mol	2.25 ± 0.15 kcal/mol
SAGGMKVKKIPVIVKILRKKDKKPIKEIPALAYKVDDKIYLVFEKPKDIKIAKEIAEKTGLPIEIYPSAGGS [r16_327_TrMRF]	2.02 ± 0.062 kcal/mol	1.01 ± 0.025 kcal/mol	1.66 ± 0.066 kcal/mol
SAGGMKVRIRIEVDGKTLELELEVEPGETVKITLEVNGEEVTITFDAATGEITIELPPGAKIVEIEPSAGGS [r16_761_TrROS_Hall]	4.52 ± 0.46 kcal/mol	3.56 ± 0.23 kcal/mol	4.01 ± 0.39 kcal/mol
SAGGMKVTILEVKPDEVVVKTSDGKTYVFPEVIKELKEKGGGVLPTKEEIAEYLKKNNIPVDDVEFGLSAGG [r13_610_JUSTAS]	1.9 ± 0.058 kcal/mol	0.436 ± 0.1 kcal/mol	1.6 ± 0.15 kcal/mol
SAGGMKVTPNGKVVKKKPKVPVKKVTLTVKVKTAEEAKALADALRDLGYKVTVDEETGVVTVEVEIESAGGS [r16_765_TrROS_Hall]	1.5 ± 0.058 kcal/mol	0.996 ± 0.079 kcal/mol	1.28 ± 0.1 kcal/mol
SAGGMKVTRLPNALVFEYPLPNSTLRIVVTPGDGTYTLELYRDGKLIATFPSPGPVADLVEAAIKALSAGGS [r8_276_TrMRF]	3.2 ± 0.033 kcal/mol	2.55 ± 0.053 kcal/mol	3.01 ± 0.073 kcal/mol
SAGGMKVTTKPLPSDSEVVDIPGGVTMKIDPKTGVGTITLPDGKTLKMTITKDPNKNTTTITITPESSAGGS [r8_186_JUSTAS]	1.14 ± 0.2 kcal/mol	0.366 ± 0.16 kcal/mol	0.998 ± 0.22 kcal/mol
SAGGMKVVIYVKDPEKFLKAIEEIENIPLENVKFEPLEGDYYKYEFPNLEAVEELIKKGYDILKIEPSAGGS [r16_381_TrMRF]	2.57 ± 0.03 kcal/mol	1.96 ± 0.09 kcal/mol	2.34 ± 0.083 kcal/mol
SAGGMLIIRIEIEIEKNGKKEKKEILIVAKTEEEAKKAAEKIAKEKGLKIKKIEILPFKSLEELKKALSAGG [r13_949_TrROS_Hall]	3.45 ± 0.037 kcal/mol	2.12 ± 0.061 kcal/mol	3.11 ± 0.089 kcal/mol
SAGGMLLLTLTVDRVEEAEFPEKVPYLRTTTQPVVVPGTTLEEAEAVAAALAAAHGVPVTLTVTPETGSAGG [r13_320_JUSTAS]	-0.175 ± 0.11 kcal/mol	-0.314 ± 0.16 kcal/mol	-0.189 ± 0.072 kcal/mol
SAGGMLTLEEIKKAKPGEKLEIEVDGKIYLVEIKKNENGELTLTVKKVDKETGEIVEEKTISLEELLSAGGS [r16_763_TrROS_Hall]	3.78 ± 0.077 kcal/mol	2.91 ± 0.11 kcal/mol	3.53 ± 0.07 kcal/mol
SAGGMLVVLLDDRPEVLPVNPERFETPEEAVEAVAREVAERFPDAGERRVVVVNEDGEEVATVELTPESAGG [r13_257_TrMRF]	0.875 ± 0.04 kcal/mol	-1.08 ± 0.12 kcal/mol	0.459 ± 0.052 kcal/mol
SAGGMMEVEEREVEIELELEPGQSIEEALRELLGLEEGDEIVDVEVEVDPETRKVKIRVVILRPPEEESAGG [r13_828_TrROS_Hall]	2.79 ± 0.2 kcal/mol	4.24 ± 0.39 kcal/mol	3.68 ± 0.52 kcal/mol
SAGGMMIVIRIPNKPVEFEINGWKIEYNPDEGTIIIPFPPEMLDQLEKLPGLEGIKDIEIIPPGELKSAGGS [r8_493_TrROS]	2.56 ± 0.051 kcal/mol	1.22 ± 0.029 kcal/mol	2.12 ± 0.14 kcal/mol
SAGGMMKIKITIINENGETLTIEIEVPEEDLEEAIKALEDELKKKGYEIESIERVNGKITITVRIKPSAGGS [r16_662_TrROS_Hall]	4.06 ± 0.06 kcal/mol	4.03 ± 0.16 kcal/mol	4.12 ± 0.12 kcal/mol
SAGGMMKYVVRIKIYNENGEEVKEIEIEIEMSEEEVEELARKLAEKLAEELGVEVKIVEVEIEKLEPSAGGS [r16_140_TrROS_Hall]	4.28 ± 0.2 kcal/mol	4.4 ± 0.37 kcal/mol	4.39 ± 0.25 kcal/mol
SAGGMNIVTYTLTIPPGRIEEVKEAIEALGIPVVKVELVEVLPGEGLAIVKIEVPNNVDPEKVKKALSSAGG [r13_725_JUSTAS]	4.13 ± 0.14 kcal/mol	3.97 ± 0.19 kcal/mol	4.09 ± 0.12 kcal/mol
SAGGMPEVKYLEITITVEVPTEEEALEKLKEELKKLFPNAEIVSVEVEVEEEDGKLTVTVKITVKLPSAGGS [r8_120_TrROS_Hall]	2.48 ± 0.11 kcal/mol	3.66 ± 0.22 kcal/mol	3.35 ± 0.16 kcal/mol
SAGGMPIKELTAEEIAALLKEKLGVDVEIEEVKVTVERDENGNYVLRIEVKFKETNETITLEIVLPKSAGGS [r16_42_TrROS_Hall]	4.2 ± 0.16 kcal/mol	2.94 ± 0.093 kcal/mol	3.86 ± 0.14 kcal/mol
